# Measurements taken from the DeepSol protein solubility set.
# Test: soluble on expression in E. coli; label from the status in PepcDB or PDB records
row,Sequence,soluble on expression in E. coli
1,MLRNKAFVVRLYPNAAQAERINRTLGCARFVYNHFLARRIESYRQDGKGMIYAATDKALTLLKREEGTAWLAEVDKFALQQSLRDLERAYQNFFRTAKKSGKKVGFPKFKKKRTGEAYRTQFTNNNIEIGEGKLKLPKLGWVKTRGQRDMQGKILNVTVRRIHEGHYEASVLCEVEIPYLPAAPKFAAGVDVGIKDFAIVTDGKGEFEHHANPKYYRSSLRRLRKAQKTLSRRKKGSARYGRAKTTLARIHKRVANKRQDFIHKLTTSLVREYEITCTEHLKPDNMRKNRRLALSVSDAGWGEFIRQLEYKATWYGRLVSKISPYFPSSQICHDCGFKNPAVKNLAVREWTCPNCGETHDRDENAALNIRREGLVAAGMSDTQNAHGDCIRPTSVGSGLRSENHATSVVLEHHHHHH,soluble
2,MLRSAVSALYRASRSFSETVPRLSATPLGKQEPQLSLSYTCKVCNSREGPKTFAKSSYEKGVVIVTCSGCHNHHIIADNIGWFEDFKGKNIEDHLKTRGEAVKRRDTIKNENGIFEIQK,not soluble
3,MLRVRCLRGGSRGAEAVHYIGSRLGRTLTGWVQRTFQSTQAATASSRNSCAADDKATEPLPKDCPVSSYNEWDPLEEVIVGRAENACVPPFTIEVKANTYEKYWPFYQKQGGHYFPKDHLKKAVAEIEEMCNILKTEGVTVRRPDPIDWSLKYKTPDFESTGLYSAMPRDILIVVGNEIIEAPMAWRSRFFEYRAYRSIIKDYFHRGAKWTTAPKPTMADELYNQDYPIHSVEDRHKLAAQGKFVTTEFEPCFDAADFIRAGRDIFAQRSQVTNYLGIEWMRRHLAPDYRVHIISFKDPNPMHIDATFNIIGPGIVLSNPDRPCHQIDLFKKAGWTIITPPTPIIPDDHPLWMSSKWLSMNVLMLDEKRVMVDANEVPIQKMFEKLGITTIKVNIRNANSLGGGFHAWTCDVRRRGTLQSYLD,soluble
4,MLSIKGKKWRNWTGNVEGTPHYTMYPESIQDVVEVVGLARKKGKKIRVVGSGHSFTPLVQTEEVLVSLDELKGIVNIDAEKMVAEVWAGTKLYDLGKLLEEKGYAQENLGDIDSQSIAGAISTGTHGTGITFGSLSTQVIEITAVLSNGESIVCSETENVEYWRAFQLSLGMLGIIVKIKLKVIPAYSLVYESEKQSLSTVMNKLEEYKKHRHFEFFVFPYSDEVQVKLTNETTNTGSDLKWHKLKVELLENRMFSLLSKGCKWFPSISKGVSRLSAKAVPNTKIIGPSYEVFATSRTVPFYEMEYSIPSKYMRTVVEEISNLIEKKKYKVHFPIECRYVKGDDIWLSPAYGRDSAYIAVHMYKGMKYAAYFGEVEKIFLKYEGRPHWGKMHTLSYEQLQDIYPEFHSFLQARKSLDELGMFFNPYAEKLFIPLFAGQ,not soluble
5,MLSKISESLANLSGAERKVAECALAEPKWFVHAAVAEIAERASVSQPTVIRFCRSLGYKGLPEFKLALSASIGHEGMPYVHEELNADDDMASVVEKVLGNAAASL,not soluble
6,MLSLAFGVNDIYEYEGKEYKLDLAFDNVLRVIDLTEDNSLSDVFRANLAIDVLFADDMPWPRSNEEDEYANIEEKSLVLIDIFTNYIVKENDDGLLYDIDGNKMPSATNNEDAEEIASYSLTQDADYIYASFLQDYNIDLLDSRGKMHWYKFRALLESLRDDTTIKTIIGIRQAELPSGKGTEKERNELIKLKNRYKLKD,not soluble
7,MLSLFALSEENKPELDCVANPTLLPHDIMYFDGFLSSEDEAFVADRLDAGEWSTELKRRVQHFGYRYDYKVRAVTPDAYLGPLPPWLGLFAERLVADGYCRTVPDQVIANEYLLGQGISAHVDCVPCFDDTIVSISLLSACEMVFRDLRGPGIRSVLHPRSGVLLRGSSRYDWTHEIPARKSDIVNGVKTARSRRISLTFRKVLGLKRPLEHHHHHH,not soluble
8,MLSLPPPEFYKLWIINKSPYQLFNIYRSGIMKVKVLDASAIIHGYNPIIEEGEHYTTPEVLEEIESKKIIVEQALDFGKLKIMSPNREYIKKVEEVVKKTGDNLSQQDIGVLALALNLNAILYTDDYGIQNVAKKLNIEVRGIAFEPTNKDFIWRKICEGCKKLYPVDYEEDICEICGSPLKRKMVKSRLKKKRKKKLEHHHHHH,soluble
9,MLSVSPLLQSPSSASMRFLSLDAYGRVLDWISWQDAACLYVRNAVSWTLGDPCLSIHGGISRLTGKRSVIALHPIIASRGHARTYVPVPTPALTNQALFARDDHLCLYCGQQFSRFQLTRDHVIPISKGGLDTWENVVTACFHCNSLKANRTPQQAGMRLLAVPYRPSWIEHLILSNRNILADQMAFLKAQLPKRSKLSRNLEHHHHHH,not soluble
10,MLTFNDNKAGMNGLDKEKITKVIEENTSASYSSFSKKQQSRIEEKVLEIKNRLQTATREERQKSEILMENLEMKLESSRDLSRDCVCIDMDAYFAAVEMRDNPALRTVPMAVGSSAMLSTSNYLARRFGVRAGMPGFISNKLCPSLTIVPGNYPKYTKVSRQFSQIFMEYDSDVGMMSLDEAFIDLTDYVASNTEKKTFKRHRFGGDCPCWLPRFDENENTLEDLKIEESICPKCEKSRKIYYDHVEFGTGREEAVREIRFRVEQLTGLTCSAGIASNFMLAKICSDLNKPNGQYVLENDKNAIMEFLKDLPIRKVGGIGRVCEAQLKAMDIQTVGDMNLKKNLYPLCFTPLSQESFLRTALGLPGRPSESDPRRKSISVERTFSPTSDFNILLEEHQEICRMLEEDVRKSGIVGGKTVTLKLKLSSFDVLTRSLTPSDVVKSLEDIQKFSLELLEKEKGKEIRLLGVRLSQLIFEEDEKKRSKTVCQKILKTITDKYKAMFSSIFLRHFISDHRVLE,not soluble
11,MLTKANPPPSKTSPLKVWAVSDGRAGIEAQVVGLAEAISRLAPCEVTVKRVGWQGNIGRLPWWLNLLPKRWLTQESGVPDSRNPDDWPDLWIAAGRATLPLSIRAKRWSGGKSFVVQIQDPRVPPHMFDLVIPPKHDRMSGDNILPITGSPHRVTPQRLAAEYEAFQDLIEPLPRPRVAVLVGGKSKAFDLSSERAAQIAHSIQIPLEQDGGSLLMTFSRRTPETARALMTARLRHLPGVVWNGEGPNPYFAFLAAADYILVTEDSTNMATEAASTGKPVFVLKMDGSSLKFRLFHEELERQGAARPYGGAFHGWTYTPVNETDRAAREVLARIGLEHHHHHH,not soluble
12,MLTPPPDSKISTTDKSLDKLSAPLDMLKQMNESTMEQTKLDELRKKMSLQAEILNKAKADNDMFFRLLIELMSLKLQGELFKEQLSKISKESGYDSAQSALIQATNSEGQSPLQYALQKQDFSTAKYFLDNGAKAGPIEKAVFEIALDSKAAKEFGFPPLPPEKEKLHPVKNFGLVLGIKTTSVDGTPSQFGHIAPTYQLMTDSVSHFAKSHPGNKNFQEIANAFQFSNEASAFKFSTPQRNPEAGNDLARRIQGGELTTIPVSCKGHAMGLSYVPDGPGSKSGYLVYTNRGLGAKSSEHGTHIFRIEDSSKITPEFINNMTSGHSNGASHDEIMSQIKAAAGNKEPIHHIKQKGQKNDNCTIANSKSNIEGILLCQKAREVGGFDKLTESDMDSVKKEYKEFTKHMRVEKVNELAKALKENPQDPDLNNLTKEYLKQHPNADPKLKQTLETALKQASESSMTLSQPGKTI,not soluble
13,MLTPPSLSLYIHIPWCVQKCPYCDFNSHAQKGEIPEQEYLDALLQDLDRDIERYQLKGDPRLLHSIFIGGGTPSLISAEGIARLLQGVAERIAFKPEIEITMEANPGTIEAQRFAGYRTAGVTRISIGVQSFEPEKLARLGRIHGQQEAVRAAQLAHQIGLNSFNLDLMHGLPDQTPEQALADLDQAIALNPPHLSWYQLTIEPNTLFYSKPPKLPDEDALWDIFELGHQKLSDAGYVQYEISGYSKPGYQCQHNLNYWRFGDYLGIGCGAHGKLSFADGRIVRTTKTKHPRGYLAALNNLAKAYLDSEQLVADQDKPFEFFMNRFRLIEPCPKADFTATTGLTIDVIRPTLDWALSEGYLSEDDQHWQITEKGKLFLNDLLEAFMADEEELEHHHHHH,not soluble
14,MLTQQQIDHIYDSLGCPLHFLWSYIGTAHGLSHDQADPDSFEERKKDFFFIVGKLLDDGLLKLGNRKTELIMEGNIEELVEMFRKSLPASDEEIDQEVGGLWFFTDCPFVAAWVYKGAGENGEDEYDWC,not soluble
15,MLVVLAISLAVTAVCAQYGSGPANNPPASSYSSNVYYPPPVYGSVYWDYDSGSREHRHKQCPRLRAYVGEFPGIPEEAFYPPIIRYVKYNRKVTALVVCDRDEKNLNFLFARHNKTRDVRSASVVAIGSTAGVTLVCNRDDRRYEGFVIDMNATTNGFSKKIEITQLTCLGLDKTIIGLPVEHGVQQLAQKIQEILEDDFFVPVIPSRRKRQAGGATANSAESTTEAADTESTTEAAATETPAAESTTTEASATDAAATEASATDAAATEGAVTKAAAGVTEESATEVITVATTPASPDAALNNAINELGKILGQVF,not soluble
16,MLWWEEVEDSYEREDVQKKTFTKWVNAQFSKFGKQHIENLFSDLQDGRRLLDLLEGLTGQKLPKEKGSTRVHALNNVNKALRVLQNNNVDLVNIGSTDIVDGNHKLTLGLIWNIILHWQVKNVMKNIMAGLQQTNSEKILLSWVRQSTRNYPQVNVINFTTSWSDGLALNALIHSHRPDLFDWNSVVSQQSATQRLEHAFNIARYQLGIEKLLDPEDVDTTYPDKKSILMYITSLFQVLPQQVSIE,soluble
17,MLYQSETLQLHWLENGIAELVFDAPGSVNKLDTKTVANLGEALNVLEKQSELKGLLLRSAKTALIVGADITEFLSLFNAPPEKLHQWLVFANTIFNRLEDLPVPTISAINGYALGGGCECILATDFRIASPEARIGLPETKLGIMPGFGGSVRLPRLLGADSALEIIATGKDVTANDALKIGLVDAVVDPEKLVGSALTMLKQAIDGKLDWQAARRPKLEPLKLNPTEAAMCFTIAKGRVMQVAGKHYPAPLTAVKTIEAAAKFGRTEALNLETNSFVPLAGSNEARALVGIFLNDQYVKAQAKKLSKGVAAPKLAAVLGAGIMGGGIAYQSALKSVPVIMKDINENSLDLGMNEAAKLLNKQLERGKVDGLKMASILATIRPTLDYAGIERAQVIVEAVVENPKVKAAVLAEVEALIGEDTVLASNTSTIPIDQLAKSLKRPENFCGMHFFNPVHRMPLVEIIRGAKTSDKTLAAVVAYATQMGKTPIVVNDCPGFFVNRVLFPYLAGFGMLVRDGGDFHQIDKVMEKQFGWPMGPAYLLDVVGIDTAHHAQAVMAAGFPERMNKDYRDAVDVMFDNQRFGQKNGQGFYRYTQDAKGKPRKENDEQVDKLLAEISQPLQEFSDEDIIARTMIPMINEVVRCLEEGIIASAAEGDMALVYGLGFPPFHGGVFRYLDTLGSANYVEMAQRYAHLGALYHVPAGLRAKAEHNESYYPVAAALLDVSTNQPA,not soluble
18,MMDYPSIDTLLESAHIVTLPMKYPFMGLSERQAVLFEGPNSWAEYSPFMGCNDTRMWLASAIEYGWGNTNVLSVPNLDLDNTNFASRSKYGYIANPQTSNKDHSDNKRFYTQTKNHREIPVNAILPDIPASKMSEILGKDLQGCKCVKIKVGKHFQDRDIHRIRAVLDFMGADTMLRLDANCKWNVSETLNNLDVLEDNDLLENVSYIEQPCRTTRELITLKQKMDTRGYVTKIAIDESLRDLLLHWQKNRKWSNNSGITYTTELRETLSACDMLVLKLQPMGGMRAVADLLESIKNNIKVNVGYTVSSSLETSLGIEMGLALALNLPNITLPVGLATAGLLDADITDDPLLPNKGYITPRKIEVNKKLLNRYAADKRHVVWWHRRIRAAHRALFQDLSD,soluble
19,MMFKNFPFFKGKKDTSFDHLVEEVKKGYIPEHIAIIMDGNGRWAKRRAMPRIAGHHEGMQVVKKITKFASKLNVKVLTLYAFSTENWKRPKKEVDYLMQLPEEFLGTFLPELIEENVQVRVIGQQDRLPTHTRRAMEKAMEETKENTGLILNFALNYGSRDEIVSAVQHMMKDSEEGKVRVEDVSEEMLSSYLMTSSLPDPELLIRTSGELRISNFMLWQIAYSEFWFTDVYWPDFTEEHLLNAITDFQHRGRRFGGV,not soluble
